Results on one molecule are retold here after US20230129812A1, “COMPOSITIONS AND METHODS FOR TREATING PULMONARY HYPERTENSION” (Acceleron Pharma Inc., priority 2020, published 2023).

What all share (experiment): A-204 Reporter Gene Assay (Example 13)
Holding throughout (assay type): cell-based

In one experiment the target is T1, BMP10 (Homo sapiens, UniProt O95393).
T1 sequence (O95393 317-424): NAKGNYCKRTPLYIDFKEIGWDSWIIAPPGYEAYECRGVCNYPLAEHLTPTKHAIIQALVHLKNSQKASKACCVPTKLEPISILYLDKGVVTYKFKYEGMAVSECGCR
An excerpt: (§1) In addition, an A-204 Reporter Gene Assay was used to evaluate the effects of ALK4-Fc:ActRIIB-Fc heterodimer and ActRIIB-Fc:ActRIIB-Fc homodimer on signaling by activin A, activin B, GDF11, GDF8, BMP10, and BMP9. Cell line: Human Rhabdomyosarcoma (derived from muscle). Reporter vector: pGL3(CAGA)12 (as described in Dennler et al, 1998, EMBO 17: 3091-3100). The CAGA12 motif is present in TGFβ responsive genes (PAI-1 gene), so this vector is of general use for factors signaling through Smads. An exemplary A-204 Reporter Gene Assay is outlined below. • Day 1: Split A-204 cells into 48-well plate. • Day 2: A-204 cells transfected with 10 ug pGL3(CAGA)12 or pGL3(CAGA)12(10 ug)+pRLCMV (1 ug) and Fugene. • Day 3: Add factors (diluted into medium+0.1% BSA). Inhibitors need to be pre-incubated with Factors for about one hr before adding to cells. About six hrs later, cells are rinsed with PBS and then lysed.
(§2) Following the above steps, a Luciferase assay was performed.

The next experiment deals with T2, BMP9 (Homo sapiens, UniProt Q9UK05).
T2 sequence (Q9UK05 320-429): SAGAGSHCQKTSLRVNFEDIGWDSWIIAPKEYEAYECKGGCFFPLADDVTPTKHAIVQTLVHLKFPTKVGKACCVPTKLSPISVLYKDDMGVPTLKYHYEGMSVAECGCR
Excerpt: as §1, §2

Another experiment deals with T3, activin B (Homo sapiens, UniProt P09529).
T3 sequence (P09529 293-407): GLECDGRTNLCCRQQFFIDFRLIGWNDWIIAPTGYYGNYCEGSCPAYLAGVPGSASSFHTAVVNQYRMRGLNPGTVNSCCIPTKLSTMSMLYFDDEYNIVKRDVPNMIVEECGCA
Excerpt: as §1, §2

B1: ALK4-Fc:ActRIIB-Fc heterodimer: heteromeric complex of extracellular domains of human ActRIIB and human ALK4, each separately fused to an Fc domain with a linker (protein)
chain 1: GRGEAETRECIYYNANWELERTNQSGLERCEGEQDKRLHCYASWRNSSGTIELVKKGCWLDDFNCYDRQECVATEENPQVYFCCCEGNFCNERFTHLPEAGGPEVTYEPPPTAPTGGGTHTCPPCPAPELLGGPSVFLFPPKPKDTLMISRTPEVTCVVVDVSHEDPEVKFNWYVDGVEVHNAKTKPREEQYNSTYRVVSVLTVLHQDWLNGKEYKCKVSNKALPAPIEKTISKAKGQPREPQVYTLPPSRKEMTKNQVSLTCLVKGFYPSDIAVEWESNGQPENNYKTTPPVLKSDGSFFLYSKLTVDKSRWQQGNVFSCSVMHEALHNHYTQKSLSLSPGK
chain 2: SGPRGVQALLCACTSCLQANYTCETDGACMVSIFNLDGMEHHVRTCIPKVELVPAGKPFYCLSSEDLRNTHCCYTDYCNRIDLRVPSGHLKEPEHPSMWGPVETGGGTHTCPPCPAPELLGGPSVFLFPPKPKDTLMISRTPEVTCVVVDVSHEDPEVKFNWYVDGVEVHNAKTKPREEQYNSTYRVVSVLTVLHQDWLNGKEYKCKVSNKALPAPIEKTISKAKGQPREPQVYTLPPSREEMTKNQVSLTCLVKGFYPSDIAVEWESNGQPENNYDTTPPVLDSDGSFFLYSDLTVDKSRWQQGNVFSCSVMHEALHNHYTQKSLSLSPG
As to B1, the “inhibition of BMP10 signaling” value in the experiment with BMP10 is given as “significantly reduced”. The “inhibition of BMP9 signaling” value with BMP9 is listed as “significantly reduced”. Further, in the experiment with activin B, the “inhibition of activin B signaling” value was “potent inhibitors”.
